Measured values taken from article PMC7908025 (ACS Central Science, 2021).

Columns and labels:
[1] = target: porcine N-acyl-D-glucosamine 2-epimerase (AGE) (Sus scrofa, UniProt P17560); assay type: biochemical; details: 35 °C, 48 h
PmST1 = PmST1 (Pasteurella multocida, UniProt Q15KI8); assay type: biochemical
[2] = test system: CC(=O)N[C@H]1[C@H]([C@H](F)[C@H](O)CO)O[C@@](O[C@H]2[C@@H](O)[C@@H](CO)O[C@@H](Oc3ccc4c(C)cc(=O)oc4c3)[C@@H]2O)(C(=O)O)C[C@@H]1O; test: purified protein
[3] = test system: CC(=O)N[C@H]1[C@H]([C@H](O)[C@H](O)CO)O[C@](OP(=O)(O)OC[C@H]2O[C@@H](n3ccc(N)nc3=O)[C@H](O)[C@@H]2O)(C(=O)O)C[C@@H]1O; test: purified protein

porcine N-acyl-D-glucosamine 2-epimerase (AGE), sequence (P17560 whole entry): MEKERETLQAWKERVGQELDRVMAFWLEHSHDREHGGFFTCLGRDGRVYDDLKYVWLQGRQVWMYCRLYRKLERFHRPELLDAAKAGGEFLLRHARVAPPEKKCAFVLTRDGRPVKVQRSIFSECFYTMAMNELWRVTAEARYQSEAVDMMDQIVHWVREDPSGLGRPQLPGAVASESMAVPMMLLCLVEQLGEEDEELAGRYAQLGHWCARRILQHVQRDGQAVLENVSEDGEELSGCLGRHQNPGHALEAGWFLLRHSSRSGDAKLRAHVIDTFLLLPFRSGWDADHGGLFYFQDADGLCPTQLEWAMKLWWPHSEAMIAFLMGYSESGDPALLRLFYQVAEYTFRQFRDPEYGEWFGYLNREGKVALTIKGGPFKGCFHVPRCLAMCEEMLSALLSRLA

## CC(=O)N[C@H]1C(O)O[C@H](CO)[C@H](F)[C@@H]1O (stereo partly drawn) [compound 2, 4-deoxy-4-fluoro-GalNAc]
[1]
  one-pot epimerase/aldolase conversion, 19F NMR: the epimerase was converting the GalNAc starting material

## CC(=O)N[C@H]1[C@H]([C@H](O)[C@H](O)CO)O[C@](OP(=O)(O)OC[C@H]2O[C@@H](n3ccc(N)nc3=O)[C@H](O)[C@@H]2O)(C(=O)O)C[C@@H]1O [compound 9, CMP-7OHSA]
PmST1
  Km: 89 µM

## (Micromonospora viridifaciens)
[2]
  Km: 1.2 (±0.15) mM
  kcat/Km: 2250 ± 1000 M⁻¹ s⁻¹

## (Photobacterium sp. JT-ISH-224)
[3]
  Km: 70 (±1) μM
  kcat/Km: 656000 M⁻¹ s⁻¹
